Test results taken from publication PMC12624060, “Structures of human organellar SPFH protein complexes” (Nature Communications, 2025).

Experiments:
[1] = target: the molecule itself; test: cryo-EM structure; Erlin1/2 complex after tandem affinity purification and SEC, in 50 mM HEPES/KOH pH 7.4, 150 mM NaCl, 0.02% DDM, 0.004% CHS; single-particle map at 3.0 Å, no symmetry applied in the last refinement
untagged PHB2 = target: T1, untagged PHB2 (human, UniProt Q99623 1-299); test: cryo-EM structure; PHB1/2 complex after one-step StrepTactin purification, in 20 mM HEPES/KOH pH 7.4, 50 mM K-phosphate, 150 mM KCl, 5 mM magnesium acetate, 5 mM ATP, DDM/CHS; closed (2.4 Å) and open (3.1 Å) conformations, C11 symmetry; settings: both partners purified
T1 construct: PHB2 (prohibitin 2), human; 11 copies in the 22-subunit PHB1/2 complex; source: complex purified on StrepTactin; copies: 11
T1 sequence (Q99623 whole entry): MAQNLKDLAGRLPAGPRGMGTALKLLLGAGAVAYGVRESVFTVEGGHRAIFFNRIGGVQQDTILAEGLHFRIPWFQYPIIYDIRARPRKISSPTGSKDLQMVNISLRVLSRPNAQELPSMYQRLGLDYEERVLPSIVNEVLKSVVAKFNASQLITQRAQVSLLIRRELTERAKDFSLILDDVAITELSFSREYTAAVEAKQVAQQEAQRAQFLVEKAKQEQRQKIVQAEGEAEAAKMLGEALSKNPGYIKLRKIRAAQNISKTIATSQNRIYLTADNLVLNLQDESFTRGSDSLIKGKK

B1: N-terminally Strep-tagged Erlin1 (natural protein, human)
chain: MTQARVLVAAVVGLVAVLLYASIHKIEEGHLAVYYRGGALLTSPSGPGYHIMLPFITTFRSVQTTLQTDEVKNVPCGTSGGVMIYIDRIEVVNMLAPYAVFDIVRNYTADYDKTLIFNKIHHELNQFCSAHTLQEVYIELFDQIDENLKQALQKDLNLMAPGLTIQAVRVTKPKIPEAIRRNFELMEAEKTKLLIAAQKQKVVEKEAETERKKAVIEAEKIAQVAKIRFQQKVMEKETEKRISEIEDAAFLAREKAKADAEYYAAHKYATSNKHKLTPEYLELKKYQAIASNSKIYFGSNIPNMFVDSSCALKYSDIRTGRESSLPSKEALEPSGENVIQNKESTG
modifications: N-linked glycan on N108
notes: Erlin1, human; cDNA in pcDNA5; 13 copies in the 26-subunit Erlin1/2 complex as modelled; source: Expi293F, co-transfected with Erlin2-Flag; complex purified (StrepTactin, anti-FLAG M2, Superose 6) in DDM/CHS; not shown: Strep, N-terminal, kept; copies: 13
binding result [1]: binds

B2: N-terminally Strep-tagged PHB1 (stable Expi293F line) (natural protein, human)
chain: MAAKVFESIGKFGLALAVAGGVVNSALYNVDAGHRAVIFDRFRGVQDIVVGEGTHFLIPWVQKPIIFDCRSRPRNVPVITGSKDLQNVNITLRILFRPVASQLPRIFTSIGEDYDERVLPSITTEILKSVVARFDAGELITQRELVSRQVSDDLTERAATFGLILDDVSLTHLTFGKEFTEAVEAKQVAQQEAERARFVVEKAEQQKKAAIISAEGDSKAAELIANSLATAGDGLIELRKLEAAEDIAYQLSRSRNITYLPAGQSVLLQLPQ
notes: PHB1 (prohibitin 1), human; cDNA in pHAGE; 11 copies in the 22-subunit PHB1/2 complex; also called prohibitin; source: solubilised membranes (DDM/CHS) and complex purified on StrepTactin; not shown: Strep, N-terminal, kept; copies: 11
stoichiometry N (untagged PHB2): 11 heterodimers in the complex

B3: C-terminally Flag-tagged Erlin2 (natural protein, human)
chain: MAQLGAVVAVASSFFCASLFSAVHKIEEGHIGVYYRGGALLTSTSGPGFHLMLPFITSYKSVQTTLQTDEVKNVPCGTSGGVMIYFDRIEVVNFLVPNAVYDIVKNYTADYDKALIFNKIHHELNQFCSVHTLQEVYIELFDQIDENLKLALQQDLTSMAPGLVIQAVRVTKPNIPEAIRRNYELMESEKTKLLIAAQKQKVVEKEAETERKKALIEAEKVAQVAEITYGQKVMEKETEKKISEIEDAAFLAREKAKADAECYTAMKIAEANKLKLTPEYLQLMKYKAIASNSKIYFGKDIPNMFMDSAGSVSKQFEGLADKLSFGLEDEPLETATKEN
modifications: N-linked glycan on N106
notes: Erlin2, human; cDNA in pcDNA5; 13 copies in the 26-subunit Erlin1/2 complex as modelled; also called Erlin2-Flag; source: Expi293F, co-transfected with Strep-Erlin1; complex purified (StrepTactin, anti-FLAG M2, Superose 6) in DDM/CHS; not shown: Flag, C-terminal, kept; copies: 13
binding result [1]: binds
